Literature values, collected in PMC12411175.

Molecular target: insulin receptor (Homo sapiens) (UniProt P06213)
Sequence of UniProt P06213 (P06213 763-1382): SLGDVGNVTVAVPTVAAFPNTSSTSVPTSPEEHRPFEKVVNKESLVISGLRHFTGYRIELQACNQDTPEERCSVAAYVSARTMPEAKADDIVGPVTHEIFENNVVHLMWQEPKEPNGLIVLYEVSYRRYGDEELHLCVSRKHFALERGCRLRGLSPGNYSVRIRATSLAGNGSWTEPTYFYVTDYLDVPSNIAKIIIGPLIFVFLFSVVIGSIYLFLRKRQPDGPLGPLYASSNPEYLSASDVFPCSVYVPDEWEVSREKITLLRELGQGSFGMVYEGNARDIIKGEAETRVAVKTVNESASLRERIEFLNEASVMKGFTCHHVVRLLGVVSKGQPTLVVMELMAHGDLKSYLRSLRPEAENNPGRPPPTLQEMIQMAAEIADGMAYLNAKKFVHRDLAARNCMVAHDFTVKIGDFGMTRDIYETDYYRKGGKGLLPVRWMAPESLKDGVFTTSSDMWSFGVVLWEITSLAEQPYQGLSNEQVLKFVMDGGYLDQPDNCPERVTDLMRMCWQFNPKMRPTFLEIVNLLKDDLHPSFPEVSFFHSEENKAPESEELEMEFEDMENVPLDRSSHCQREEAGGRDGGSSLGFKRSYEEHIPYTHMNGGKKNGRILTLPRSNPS

Sequence of insulin (P01308 90-110): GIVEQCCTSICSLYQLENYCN

Substance: insulin (from UniProt P01308)
- Kd: 0.02 nM
